This assay has as its target SARS-CoV-2 Omicron (B.1.1.529) spike, prefusion-stabilized soluble trimeric ectodomain (S-trimer) (SARS-CoV-2 | bacteriophage T4) (UniProt P0DTC2). Briefly: cryo-EM structure.

human ACE2, sequence (Q9BYF1 19-612): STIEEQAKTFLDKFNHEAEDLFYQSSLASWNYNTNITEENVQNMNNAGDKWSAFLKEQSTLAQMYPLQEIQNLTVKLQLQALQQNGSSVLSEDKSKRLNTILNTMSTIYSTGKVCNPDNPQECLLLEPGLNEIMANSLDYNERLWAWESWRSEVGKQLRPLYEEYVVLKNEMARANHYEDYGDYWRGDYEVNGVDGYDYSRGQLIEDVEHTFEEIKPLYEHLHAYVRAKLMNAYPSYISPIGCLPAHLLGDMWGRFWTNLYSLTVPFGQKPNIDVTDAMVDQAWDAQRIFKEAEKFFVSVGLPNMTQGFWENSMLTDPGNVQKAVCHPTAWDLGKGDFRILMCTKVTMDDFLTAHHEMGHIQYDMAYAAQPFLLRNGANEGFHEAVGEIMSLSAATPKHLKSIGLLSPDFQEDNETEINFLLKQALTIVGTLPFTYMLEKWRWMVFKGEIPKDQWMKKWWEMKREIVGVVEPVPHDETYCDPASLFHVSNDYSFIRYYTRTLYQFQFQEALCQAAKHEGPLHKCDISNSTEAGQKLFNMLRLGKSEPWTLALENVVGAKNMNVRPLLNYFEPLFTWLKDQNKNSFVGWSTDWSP

Turning to “human ACE2 (from UniProt Q9BYF1) (receptor)”, the stoichiometry N (ACE2 per S-trimer) is 2.

The record behind these values is paper doi:10.1101/2021.12.29.474402.
